Key:
leptin-monomer Ab1 = leptin-monomer Ab1 (UniProt P41159)
leptin-dimer Ab1 = leptin-dimer Ab1 (UniProt P41159)
leptin-dimer kemptide = leptin-dimer kemptide (UniProt P41159)
[1] = target: T1, malic enzyme-monomer kemptide (UniProt P26616)
T1 sequence: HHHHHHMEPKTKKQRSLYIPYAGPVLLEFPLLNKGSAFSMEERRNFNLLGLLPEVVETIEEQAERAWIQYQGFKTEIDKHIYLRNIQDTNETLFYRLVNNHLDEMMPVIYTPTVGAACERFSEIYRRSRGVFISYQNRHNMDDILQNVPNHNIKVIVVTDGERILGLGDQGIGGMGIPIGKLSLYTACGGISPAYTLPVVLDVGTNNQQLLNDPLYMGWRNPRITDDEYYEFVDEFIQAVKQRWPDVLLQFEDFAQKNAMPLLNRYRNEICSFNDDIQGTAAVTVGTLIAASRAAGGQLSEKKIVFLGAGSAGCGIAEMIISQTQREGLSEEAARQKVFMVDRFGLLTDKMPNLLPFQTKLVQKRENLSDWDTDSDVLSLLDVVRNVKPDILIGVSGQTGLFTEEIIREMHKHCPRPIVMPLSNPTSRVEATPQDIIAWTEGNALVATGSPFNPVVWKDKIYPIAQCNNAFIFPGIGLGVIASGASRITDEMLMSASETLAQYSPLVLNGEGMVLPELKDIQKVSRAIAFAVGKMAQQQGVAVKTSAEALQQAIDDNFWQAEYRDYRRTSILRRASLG

leptin-dimer kemptide, sequence (P41159 other isoform, or with tags, fused parts or gaps): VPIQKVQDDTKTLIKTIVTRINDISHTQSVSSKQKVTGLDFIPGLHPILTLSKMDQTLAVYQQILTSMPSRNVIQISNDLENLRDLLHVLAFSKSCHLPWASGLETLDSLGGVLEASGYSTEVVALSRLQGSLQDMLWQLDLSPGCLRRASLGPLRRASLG
leptin-dimer Ab1, sequence (P41159 other isoform, or with tags, fused parts or gaps): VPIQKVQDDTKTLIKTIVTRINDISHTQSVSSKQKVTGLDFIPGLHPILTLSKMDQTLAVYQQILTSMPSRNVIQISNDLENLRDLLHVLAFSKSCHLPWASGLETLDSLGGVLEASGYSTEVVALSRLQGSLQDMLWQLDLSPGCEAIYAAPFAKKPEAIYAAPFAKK
leptin-monomer Ab1, sequence (P41159 other isoform, or with tags, fused parts or gaps): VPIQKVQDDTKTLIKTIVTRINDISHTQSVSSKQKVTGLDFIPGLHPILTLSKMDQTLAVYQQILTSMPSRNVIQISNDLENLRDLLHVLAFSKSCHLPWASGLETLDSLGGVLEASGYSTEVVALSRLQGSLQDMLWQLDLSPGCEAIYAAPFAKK

Ab1 kinase
fluorometric analysis of phosphorylation on protein chip (Cy5-labeled anti-phosphorylation tyrosine antibody) (leptin-monomer Ab1): the Ab1 kinase showed a specific interaction with the Ab1 monomer and dimer fused with leptin | fluorometric analysis of phosphorylation on protein chip (Cy5-labeled anti-phosphorylation tyrosine antibody) (leptin-dimer Ab1): the Ab1 kinase showed a specific interaction with the Ab1 monomer and dimer fused with leptin

protein kinase A
fluorometric analysis of phosphorylation on protein chip, 10-fold diluted spots (leptin-dimer kemptide): In a diluted state as shown by 2 and 4, the dimer showed a higher reactivity than the monomer | fluorometric analysis of phosphorylation on protein chip (Cy3-labeled anti-phosphorylation serine antibody) [1]: the protein kinase A showed a specific interaction with the kemptide of a form fused with the leptin or malic enzyme

From US20060105407
